What all share (conditions): chains peptide; modification not given
The target of assay [1] is T1, GST-PDZ fusion protein, PDZ domain of MAST2 (Accession no. AB047005), Q6P0Q8.
T1 chain: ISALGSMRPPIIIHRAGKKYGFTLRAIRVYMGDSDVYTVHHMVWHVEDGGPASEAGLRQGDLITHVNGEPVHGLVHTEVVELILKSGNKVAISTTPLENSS
Nature of the assay: ELISA (G Assay). In general terms: An ELISA detects its analyte on a solid surface through an enzyme-linked reagent.

Assay [2] has as its target T2, GST-PDZ fusion protein, PDZ domain of SHANK2 (GID 6049185), Q9UPX8.
T2 chain: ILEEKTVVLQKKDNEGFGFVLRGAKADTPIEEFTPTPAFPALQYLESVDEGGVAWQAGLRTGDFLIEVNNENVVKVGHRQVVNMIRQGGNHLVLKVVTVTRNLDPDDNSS
The experiment in a line: ELISA.

Assay [3] has as its target T3, GST-PDZ fusion protein, PDZ domain of SHANK1 (GID 7025450), D3YZU1.
T3 chain: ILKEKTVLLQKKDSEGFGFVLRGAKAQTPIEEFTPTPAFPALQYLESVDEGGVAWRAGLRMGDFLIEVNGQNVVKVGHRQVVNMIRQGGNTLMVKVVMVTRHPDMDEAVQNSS
Nature of the assay: ELISA.

B1: Peptide 1957 (peptide)
chain: RRRSGLDDINPTVLLKERSTEL
Usually EC50 stands for the concentration giving half of the maximal effect. Read a low EC50 as greater potency. Turning to B1, the EC50 in assay [1] was 23.1 µM; in assay [2], 62 µM; in assay [3] it was 66.3 µM.

The values are drawn from patent publication US20070020717A1.
